Results from US20080274134A1.

Target: Protein G on µMACS Protein G microbeads (Group G Streptococci) (UniProt P06654)
Test: immobilisation on µMACS Protein G microbeads

UniProt P06654, sequence (P06654 228-352): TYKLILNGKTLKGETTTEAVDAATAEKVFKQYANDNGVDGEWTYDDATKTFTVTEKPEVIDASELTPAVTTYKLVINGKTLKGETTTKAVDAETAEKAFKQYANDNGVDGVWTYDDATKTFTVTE

Row | Substance | capacity of the microbeads (µg per ml of microbead suspension)
1 | human monoclonal antibody 2G12 | 60
2 | human monoclonal antibody 2F5 | 95
3 | human monoclonal antibody IgG1b12 | 55
